Data set [1] concerns the molecule itself. Description: X-ray crystal structure; self-association of protomers. As for the experimental part: (§1) 19 designs were chosen to undergo crystallization screens. Each design was expressed as described above in 0.5 L cultures. […] Following SEC, 2 mM of NiCl₂ was added and the solution was incubated overnight at 37° C. Following cleavage, the solutions containing the cleaved protein products were incubated with 1 mL Ni-NTA resin to bind any uncleaved product, and the flow through was collected. Following SEC into Crystallization buffer (20 mM Tris, 50 mM NaCl, pH 8.0), each sample was concentrated to approximately 15 mg mL⁻¹. The following sitting drop broad screens were set up at room temperature with three protein:crystallization condition ratios (1:1, 1:2, 2:1) using the mosquito pipetting instrument (sptlabtech): Midas™ (Molecular Dimensions), Proplex™ (Molecular Dimensions), JCSG+™ (Molecular Dimensions), Morpheus™ (Molecular Dimensions), Pact Premier™ (Molecular Dimensions), LMB™ (Molecular Dimensions), Index™ (Hampton Research) and PGA™ (Molecular Dimensions). Each was monitored weekly for crystal growth using the JANSi UVEX imaging system.
Where required, crystals were cryoprotected with 20% glycerol or 25% ethylene glycol prior to flash freezing in liquid nitrogen. Data collection was done using the Advanced Photon Source synchrotron. Images were integrated using XDS 20220110 (37). Aimless (38) was used for scaling and merging. Phaser™ 2.8 (39) was used for molecular replacement using the design models as search models (either monomer or oligomeric complex). Models were built using Coot 0.9.8 (40) and refined with Phenix ™ refine from Phenix™ 1.20 (41) and RefMac™ (42) from CCP4 7.1 (38) suite. All structures were validated using MolProbity™ 4.5.1(43).

Data set [2] deals with the molecule itself. The data set is described as follows: negative stain EM, 2D class averages and 3D maps; self-association of protomers (hexamer). As for the experimental part: (§2) Next, we selected three designs: one C15 homo-pentamer (HALC5-15_262), one C18 homo-hexamer (HALC6-18_265) and one C33 homo-trimer (HALC3-33_343) for high-resolution single particle cryoEM characterization.
(§3) SEC fractions corresponding to the designs were concentrated in TBS prior to negative stain EM screening. Samples were then immediately diluted 5 to 150 times in TBS buffer (25 mM Tris, 100 mM NaCl, pH 8.0) depending on the concentration of the samples. A final volume of 5 μL was applied on negatively glow discharged, carbon-coated 400-mesh copper grids (01844-F, TedPella Inc.), then washed with Milli-Q Water and stained using 0.75% uranyl formate as previously described (44). Air-dried grids were then imaged on either a FEI Talos™ L120C TEM (FEI Thermo Scientific) equipped with a 4K×4K Gatan OneView™ camera at a magnification of 57,000× and pixel size of 2.5 Å. Micrographs collection was automated using EPU™ software (FEI Thermo Scientific) and were imported into CisTEM™ software (45) or cryoSPARC™ software (46, 47). CTF estimation was done with CTFFIND4 and a circular blob picker was used to select particles which were then subjected to 2D classification. Ab initio reconstruction and homogeneous refinement in Cn symmetry were used to generate 3D electron density maps. All EM maps can be found in supplementary data.

Data set [3] concerns the molecule itself. The data set is described as follows: negative stain EM, 2D class averages and 3D maps; self-association of protomers (heptamer). As for the experimental part: as §2, §3
Data set [4] deals with the molecule itself. Description: negative stain EM, 2D class averages and 3D maps; self-association of protomers (pentamer). As for the experimental part: as §2, §3
Data set [5] concerns the molecule itself. The data set is described as follows: single particle cryoEM; self-association of protomers.
Description: The designs were relaxed into experimental cryoEM electron densities using Rosetta FastRelax and SetupForDensityScoring.
For some samples, multiple blots were applied in order to obtain the best particle density. All grids were blotted using a blot force of 0 and 5.5 second blot time at 100% humidity and 4° C. and plunge-frozen in liquid ethane using a Vitrobot™ Mark IV (FEI Thermo Scientific). All cryoEM grids were screened on a Glacios™ transmission electron microscope (FEI Thermo Scientific) operated at 200 kV and equipped with a Gatan K2 or K3 Summit direct detector. […] Movies were acquired in counting mode fractionated in 50 frames of 200 ms at 8.5 e-/pixel/sec for a total dose of ˜65e-/Å².
Data set [6] concerns the molecule itself. Description: X-ray crystallography; self-association of protomers (homo-dimer). As for the experimental part:
as §1
Where required, crystals were cryoprotected with 20% glycerol or 25% ethylene glycol prior to flash freezing in liquid nitrogen. Data collection was done using the Advanced Photon Source synchrotron. Images were integrated using XDS 20220110 (37). Aimless (38) was used for scaling and merging. […]

B1: HALC4_135 (other)
chain: MEKFKEQLLEEVKKIVLETMTKVMEHLEKWFVTLAEIIITKSEEKLEELKETMEKSIEELRKEAE
notes: De novo designed protomer; pair is protomer with identical protomer (C4 homo-tetramer)
For B1, the binding result in data set [1] was “binds”.

B2: HALC24-6_316 (other)
chain: SKEKLGIQQDLFEGIIATLLSHKDPRVLYLMVTILKLTGSSPSKEKLGIQQDLFEGIIATLLSHKDPRVLYLMVTILKLTGSSPSKEKLGIQQDLFEGIIATLLSHKDPRVLYLMVTILKLTGSSPSKEKLGIQQDLFEGIIATLLSHKDPRVLYLMVTILKLTGSSP
notes: De novo designed protomer; pair is protomer with identical protomer (C24 internal symmetry, homo-hexamer); not shown: C-terminal His tag
In the case of B2, the binding result in data set [2] is given as “binds”.

B3: HALC2_068 (other)
chain: MIKVPEDLERIGRELRARGLDTKRLLEEGPKLYPELSIPDLMAIALYDHLNLDPEFLYRLLQQSR
notes: De novo designed protomer; pair is protomer with identical protomer (C2 homo-dimer)
Consider B3, for which the binding result in data set [1] is “binds”.

B4: HALC42-7_351 (other)
chain: PSLTLNDFGDLGKGLGEGLQGMENLEKLQLTITLKLTVSTPSLTLNDFGDLGKGLGEGLQGMENLEKLQLTITLKLTVSTPSLTLNDFGDLGKGLGEGLQGMENLEKLQLTITLKLTVSTPSLTLNDFGDLGKGLGEGLQGMENLEKLQLTITLKLTVSTPSLTLNDFGDLGKGLGEGLQGMENLEKLQLTITLKLTVSTPSLTLNDFGDLGKGLGEGLQGMENLEKLQLTITLKLTVST
notes: De novo designed protomer; pair is protomer with identical protomer (C42 internal symmetry, homo-heptamer); not shown: C-terminal His tag
For B4, the binding result in data set [3] was “binds”.

B5: HALC20-5_308 (other)
chain: SLGWKVLLHLDLTWYPGADYTIDHDDMTRAARALAHGFERAAHSFAEAIGSTGSLGWKVLLHLDLTWYPGADYTIDHDDMTRAARALAHGFERAAHSFAEAIGSTGSLGWKVLLHLDLTWYPGADYTIDHDDMTRAARALAHGFERAAHSFAEAIGSTGSLGWKVLLHLDLTWYPGADYTIDHDDMTRAARALAHGFERAAHSFAEAIGSTG
notes: De novo designed protomer; pair is protomer with identical protomer (C20 internal symmetry, homo-pentamer); not shown: C-terminal His tag
Take B5: the binding result in data set [4] was “binds”.

B6: HALC6_220 (other)
chain: PPIPPPSFKLEISPAFLELVQLVIDLHPNDEEVRKELIENLISRIGKSDNVPPETISLDISEAALELFEWIFEKFPDDEDVHRRLIESFINKRKFSSSSPLDTPSLDISERFIELVKYILEKYPEDEEIKQKLIDSLLNLLGSY
notes: De novo designed protomer; pair is protomer with identical protomer (C6 homo-hexamer); not shown: C-terminal His tag
In the case of B6, the binding result in data set [2] is recorded as “binds”.

B7: HALC15-5_262 (other)
chain: DVPLTDPKNLNEFLYALGEGLKGMKNLKKLTLTFPSNPLTIPGDISEGFRELGEGLKGMKNLEELTVTFNDVPLTDPKNLNEFLYALGEGLKGMKNLKKLTLTFPSNPLTIPGDISEGFRELGEGLKGMKNLEELTVTFNDVPLTDPKNLNEFLYALGEGLKGMKNLKKLTLTFPSNPLTIPGDISEGFRELGEGLKGMKNLEELTVTFN
notes: De novo designed protomer; pair is protomer with identical protomer (C15 internal symmetry, homo-pentamer); also called HALC5-15_262; HALC5-15 262; not shown: C-terminal His tag
As for B7, the binding result in data set [5] was “binds”.

B8: HALC2_062 (other)
chain: MARVEYSYEKLNDTHYKLKLKVTYEYRKSPEARRLAEDLVQAFVDALSSLPFITVEYEVEEVEVE
notes: De novo designed protomer; the entry is one protomer and the pair is protomer with identical protomer (C2 homo-dimer)
Regarding B8, the binding result in data set [6] is given as “binds”.

B9: HALC25-5_341 (other)
chain: EGAAIAENLATAYQGIGETLPSLQDLRVLHLSVIFSAEGSSPEGAAIAENLATAYQGIGETLPSLQDLRVLHLSVIFSAEGSSPEGAAIAENLATAYQGIGETLPSLQDLRVLHLSVIFSAEGSSPEGAAIAENLATAYQGIGETLPSLQDLRVLHLSVIFSAEGSSPEGAAIAENLATAYQGIGETLPSLQDLRVLHLSVIFSAEGSSP
notes: De novo designed protomer; pair is protomer with identical protomer (C25 internal symmetry, homo-pentamer); not shown: C-terminal His tag
For B9, the binding result in data set [4] is on record as “binds”.

B10: HALC3_109 (other)
chain: REEIEEAVKEAELKVLAIVLVALRSVSHYEPLSRLYESFLDALKKALSEEELKEVEKEAERIEKK
notes: De novo designed protomer; pair is protomer with identical protomer (C3 homo-trimer)
On to B10, for which the binding result in data set [1] is reported as “binds”.

B11: HALC3_104 (other)
chain: KRIDEIESKLKHLEEFTTHLIKLMETMLELLKLVSDGKSDSEEYKELLEKAEEYLKQATEAAKKI
notes: as for B10
As for B11, the binding result in data set [1] is listed as “binds”.

B12: HALC33-3_343 (other)
chain: PSNWPEVAKYFDLGKALKPIGEGLQNLKNLKHLDLSFSFSLELYPGLPSNWPEVAKYFDLGKALKPIGEGLQNLKNLKHLDLSFSFSLELYPGLPSNWPEVAKYFDLGKALKPIGEGLQNLKNLKHLDLSFSFSLELYPGLPSNWPEVAKYFDLGKALKPIGEGLQNLKNLKHLDLSFSFSLELYPGLPSNWPEVAKYFDLGKALKPIGEGLQNLKNLKHLDLSFSFSLELYPGLPSNWPEVAKYFDLGKALKPIGEGLQNLKNLKHLDLSFSFSLELYPGLPSNWPEVAKYFDLGKALKPIGEGLQNLKNLKHLDLSFSFSLELYPGLPSNWPEVAKYFDLGKALKPIGEGLQNLKNLKHLDLSFSFSLELYPGLPSNWPEVAKYFDLGKALKPIGEGLQNLKNLKHLDLSFSFSLELYPGLPSNWPEVAKYFDLGKALKPIGEGLQNLKNLKHLDLSFSFSLELYPGLPSNWPEVAKYFDLGKALKPIGEGLQNLKNLKHLDLSFSFSLELYPGL
notes: De novo designed protomer; pair is protomer with identical protomer (C33 internal symmetry, homo-trimer); not shown: C-terminal His tag
For the protein B12, the binding result in data set [5] is recorded as “binds”.

The values are drawn from US20240013853A1 (University of Washington, published 2024).
